The target in assay [1] is T1, mouse CD47-Fc (mouse, UniProt Q61735 19-140, limits assumed).
T1 construct: not shown: Fc part; not described
T1 sequence (looked up): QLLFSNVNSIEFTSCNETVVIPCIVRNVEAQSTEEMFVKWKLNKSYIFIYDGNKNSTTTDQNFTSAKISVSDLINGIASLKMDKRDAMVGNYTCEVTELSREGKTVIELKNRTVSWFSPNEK
Description: BLI (ForteBio), antibody on AHQ tip, mouse CD47-Fc in solution 100 nM, bivalent. (BLI is a label-free optical method that tracks binding on a fibre tip over time.)

Assay [2] concerns the target T2, human CD47-Fc (human, UniProt Q08722 19-139).
T2 construct: also called hCD47; not shown: Fc part
In words: BLI (ForteBio), human CD47-Fc on AHQ tip, Fab in solution 100 nM, monovalent.

The target in assay [3] is T3, human CD47 overexpressed on CHO cells (human, UniProt Q08722 19-292).
T3 construct: CHO cells transfected with pCHO1.0 carrying human CD47 cDNA (Sino Biological); also called hCD47; CHO-hCD47 cells
In words: flow cytometry competition on CHO-hCD47 cells against 200 nM mouse Fc-labeled SIRPα.

Assay [4] concerns the target T3, human CD47 overexpressed on CHO cells. In words: flow cytometry on CHO-hCD47 cells, PE anti-human IgG, MFI curve.
Assay [5] deals with T1, mouse CD47-Fc. Description: BLI (ForteBio), antibody on AHQ tip, mouse CD47-Fc in solution, bivalent.
Assay [6] has as its target T2, human CD47-Fc. In words: BLI (ForteBio), antibody on AHQ tip, human CD47-Fc in solution 100 nM, bivalent.
The target of assay [7] is T4, cynomolgus monkey CD47-Fc (cynomolgus monkey, UniProt A0A2K5X523 19-139).
T4 construct: not shown: Fc part; not described
In words: BLI (ForteBio), antibody on AHQ tip, cynomolgus monkey CD47-Fc in solution 100 nM, bivalent.

Changes are numbered by the printed parent chain.

B1: Hu5F9 (antibody, V domains shown)
VH: QVQLVQSGAEVKKPGASVKVSCKASGYTFTNYNMHWVRQAPGQRLEWMGTIYPGNDDTSYNQKFKDRVTITADTSASTAYMELSSLRSEDTAVYYCARGGYRAMDYWGQGTLVTVSS
VL: DIVMTQSPLSLPVTPGEPASISCRSSQSIVYSNGNTYLGWYLQKPGQSPQLLIYKVSNRFSGVPDRFSGSGSGTDFTLKISRVEAEDVGVYYCFQGSHVPYTFGQGTKLEIKR
Molecule B1 had a Kd in the assay with mouse CD47-Fc [1] of 12.7 nM.

B2: ADI-29337 Fab fragment (Fab, V domains shown)
VH: QVQLQESGPGLVKPSETLSLTCTVSGGSINHYYWSWIRQPPGKGLEWIGAIYYSGSTRYNPSLKSRVTISVDTSKNQFSLKLSSVTAADTAVYYCARGKSAFDPWGQGTLVTVSS
VL: DIQMTQSPSSVSASVGDRVTITCRASQGISRWLAWYQQKPGKAPKLLIYAASSLQSGVPSRFSGSGSGTDFTLTISSLQPEDFATYYCQQADLHPPLTFGGGTKVEIKR
Take B2: the Kd with human CD47-Fc [2] was found to be 2.2 nM.

B3: ADI-26655 (antibody, human IgG1, kappa, V domains shown)
VH: B2 VH with N30S, H31S, A50Y, R58T, G98K, S100R, A101F, P104L, L110T
VL: not shown
notes: Full-length IgG1 kappa expressed in yeast, purified by Protein A
In general, IC50 refers to the concentration at which inhibition is half-maximal. Usually EC50 stands for the concentration giving half of the maximal effect. In turn, B3 yielded an IC50 in assay [3] of 38.1 nM. This molecule came in with a half-maximal effective concentration (EC50) in assay [4] of 7.65 nM. For the same molecule, in the assay with mouse CD47-Fc [5], the binding result is recorded as “no binding (tested: 100 nM)”. Besides, the Kd with human CD47-Fc [6] came out at 0.849 nM.

B4: ADI-26660 (antibody, human IgG1, kappa, V domains shown)
VH: B2 VH with N30S, H31S, A50S, R58N, G98K, K99Q, S100K, A101H, P104I, L110M
VL: DIQMTQSPSSVSASVGDRVTITCRASQGISSWLAWYQQKPGKAPKLLIYAASSLQSGVPSRFSGSGSGTDFTLTISSLQPEDFATYYCQQVNHHPWTFGGGTKVEIKR
notes: as for B3
As for B4, in assay [3], the 50% inhibitory concentration (IC50) is 16.7 nM. Besides, it took 5.74 nM to reach a half-maximal effect in assay [4] (EC50). For the same molecule, the binding result with mouse CD47-Fc [5] is recorded as “no binding (tested: 100 nM)”. This molecule gave a Kd with human CD47-Fc [6] of 1.35 nM.

B5: ADI-29342 Fab fragment (Fab, V domains shown)
VH: B2 VH with N30M, A50Y, R58N, S100T, A101G, F102S, D103A, P104A
VL: B4 VL with S31R, V91T, N92V, H93S, H94F, W96I
B5: the Kd in the assay with human CD47-Fc [2] amounted to 11.7 nM.

B6: ADI-29337 (antibody, human IgG1, kappa, V domains shown)
VH: B2 VH
VL: B2 VL
notes: as for B3
On to B6, for which the Kd in assay [7] worked out at 0.554 nM; with mouse CD47-Fc [1], 18.7 nM; with human CD47-Fc [6], 0.404 nM.

B7: ADI-26660 Fab fragment (Fab, V domains shown)
VH: B2 VH with N30S, H31S, A50S, R58N, G98K, K99Q, S100K, A101H, P104I, L110M
VL: B4 VL
notes: also called ADI-26660 (Fab form)
For B7, in the assay with human CD47-Fc [2], the Kd is 130 nM.

B8: ADI-26655 Fab fragment (Fab, V domains shown)
VH: B2 VH with N30S, H31S, A50Y, R58T, G98K, S100R, A101F, P104L, L110T
VL: not shown
notes: also called ADI-26655 (Fab form)
B8 came in with a Kd with human CD47-Fc [2] of 46.3 nM.

B9: ADI-29342 (antibody, human IgG1, kappa, V domains shown)
VH: B2 VH with N30M, A50Y, R58N, S100T, A101G, F102S, D103A, P104A
VL: B4 VL with S31R, V91T, N92V, H93S, H94F, W96I
notes: as for B3
In the case of B9, in assay [3], the IC50 stood at 2.69 nM. The same molecule gave an EC50 in assay [4] of 2.74 nM. Besides, in the assay with mouse CD47-Fc [5], the binding result is recorded as “no binding (tested: 100 nM)”. The same molecule had a Kd with human CD47-Fc [6] of 0.486 nM.

B10: ADI-29347 Fab fragment (Fab, V domains shown)
VH: QVQLQESGPGLVKPSETLSLTCTVSGGSIANYYWSWIRQPPGKGLEWIGYTYFSGSTNYNPSLKSRVTISVDTSKNQFSLKLSSVTAADTAVYYCARGKTGSAAWGQGTLVTVSS
VL: B4 VL with S31R, V91T, N92V, H93S, H94F, W96I
notes: also called ADI-29347 (Fab form)
As for B10, the Kd with human CD47-Fc [2] came to 11.3 nM.

B11: ADI-29345 (antibody, human IgG1, kappa, V domains shown)
VH: B10 VH with A30S, N31H, T51I, F53Y, S56V, N58T, A103T
VL: B4 VL with S31R, V91T, N92V, H93S, H94F, W96I
notes: as for B3
In turn, B11 returned a 50% inhibitory concentration (IC50) in assay [3] of 2.75 nM. In assay [4], this molecule had an EC50 of 1.5 nM. In addition, the binding result in the assay with mouse CD47-Fc [5] is on record as “no binding (tested: 100 nM)”. The molecule also returned a Kd with human CD47-Fc [6] of 0.403 nM.

B12: ADI-29345 Fab fragment (Fab, V domains shown)
VH: B10 VH with A30S, N31H, T51I, F53Y, S56V, N58T, A103T
VL: B4 VL with S31R, V91T, N92V, H93S, H94F, W96I
For the molecule B12, the Kd with human CD47-Fc [2] was determined as 2.89 nM.

B13: ADI-29338 (antibody, human IgG1, kappa, V domains shown)
VH: B2 VH with N30S, H31S, A50T
VL: B2 VL
notes: as for B3
On to B13, for which, in assay [3], the IC50 is 3.14 nM. Further, in assay [4], the midpoint of the response, the EC50, lay at 1.57 nM.

B14: ADI-29350 (antibody, human IgG1, kappa, V domains shown)
VH: B2 VH with N30E, A50Y, S56F, R58E, G98K, S100R, A101F, P104L, L110T
VL: not shown
notes: as for B3
As for B14, the IC50 in assay [3] is 10.5 nM. For the same molecule, the EC50 in assay [4] turned out to be 4.42 nM. Further, in the assay with mouse CD47-Fc [5], the binding result is recorded as “no binding (tested: 100 nM)”. The same molecule registered a Kd in the assay with human CD47-Fc [6] of 0.451 nM.

B15: ADI-29347 (antibody, human IgG1, kappa, V domains shown)
VH: B10 VH
VL: B4 VL with S31R, V91T, N92V, H93S, H94F, W96I
notes: as for B3
B15: the Kd in assay [7] is 0.562 nM; in the assay with human CD47-Fc [6], 0.71 nM. The molecule also displayed an IC50 in assay [3] of 2.16 nM. In assay [4], this molecule displayed an EC50 of 1.81 nM. Moreover, the binding result in the assay with mouse CD47-Fc [5] is reported as “no binding (tested: 100 nM)”.

B16: ADI-29350 Fab fragment (Fab, V domains shown)
VH: B2 VH with N30E, A50Y, S56F, R58E, G98K, S100R, A101F, P104L, L110T
VL: not shown
notes: also called ADI-29350 (Fab form)
As to B16, the Kd with human CD47-Fc [2] was determined as 5.04 nM.

These data come from US20200377593A1 (Innovent, published 2020).
